The values below come from patent US20260185102A1, “LIGAND-BINDING NUCLEIC ACID COMPLEX” (RENA THERAPEUTICS INC., priority 2021, published 2026).

In the oligonucleotide strings, read from the 5' end, every base follows the letter of its sugar. An asterisk marks phosphorothioate; unmarked linkages are phosphodiester. Other units and linkages are bracketed, terminal groups are in braces. A string of capitals states the bases alone. Where no end group is shown, it is not given here. [ ]: non-standard residue; d: D form. {L001} = PTH1 ligand L001 attached via a dibenzocyclooctyne-succinyl-hexylamino linker; l = locked nucleic acid (LNA); [5mC] = 5-methylcytosine; Aib = CC(C)(N)C(=O)O; d = 2'-deoxy (DNA); m = 2'-O-methyl; r = 2'-OH (RNA)

The test system of series [1] is mouse Malat1 ncRNA. In words: Malat1 ncRNA expression in mouse kidney after intravenous or subcutaneous PTH1 ligand-HDO (Example 5). Particulars: intravenous, 1 μmol/kg. The class given is in vivo. The protocol: The nucleic acid complexes used in Example 5 are each a conjugate of 16-mer HDO or ASO targeting mouse Malat1 ncRNA prepared in the example above and the PTH1 ligand. The present inventors adjusted the oligo complex with physiological saline (Otsuka Pharmaceutical Co., Ltd.), the oligo complex for animal evaluation was denatured in a block bath (CDB-105, AS ONE Corporation), and the double-stranded HDO for cell evaluation was subjected to an annealing procedure comprising denaturing at 90° C. for 10 minutes and then naturally cooling to room temperature over a period of about 2 hours in a T100 thermal cycler (Bio-Rad). […]
For mRNA extraction, tissue was fractured by bead crushing using a TissueLyser II (QIAGEN). Total RNA was extracted from the solution containing fractured tissue using the ReliaPrep™ RNA Tissue Miniprep System (Promega Corporation). cDNA was prepared from total RNA by reverse transcription using the PrimeScript™ RT Master Mix (TaKaRa). mRNA expression of each gene was measured using the real-time PCR system (StepOnePlus, Applied Biosystems). […]
All the measured values were indicated in terms of “mean±standard deviation.” Statistical analysis was performed using GraphPad Prism 9.4.0. […]

The nature of series [2]: Intrarenal distribution, immunostained kidney images after L001-HDO6-Alexa488 (Example 4). Type of series: in vivo, mouse. Conditions: 1 μmol/kg, c57BL/6J mice. The procedure: The fluorescence-labeled ASO comprising Alexa488 bound to the 5′ terminus of the antisense strand (SEQ ID NO: 179) prepared in Example 2 was annealed to the L001 complementary strand (SEQ ID NO: 180) by the method described in Example 2 to form a duplex complex. Thus, the fluorescence-labeled HDO (L001-HDO6-Alexa488) was prepared.
The immunohistochemical test was performed with the use of c57BL/6J mice (12 mice). The fluorescence-labeled HDO (L001-HDO6-Alexa488) was intravenously administered to mice at […] once, a blood sample was taken from the heart under anesthesia with isoflurane 10 minutes, 6 hours, 24 hours, and 72 hours later, the kidney was perfused by left ventricular cannulation with 10 ml of saline followed by 10 ml of 4% paraformaldehyde solution, and the kidney was extracted from the mice. The extracted kidney was soaked in 4% paraformaldehyde to prepare frozen sections. The frozen sections were stained with Nephrin (the primary antibody: mouse Nephrin affinity purified polyclonal antibody, Goat IgG (AF3459), R&D Systems) and Alexa Fluor 594 (the secondary antibody: chicken anti-goat IgG (H+L) (A-21468), Invitrogen) to observe the renal glomerulus, and the frozen sections were stained with a DAPI (4′,6-diamidino-2-phenylindole) solution to observe the DNA-containing cell nuclei. The fluorescent images of the pathological sections were incorporated with the use of the Olympus VS120 Slide Scanning System.
The photograph in the lower right is an image obtained by superposing the aforementioned 3 photographs superposed on top of each other (merged).

A short description of series [3]: Tm of ligand-bound HDO6 duplex. The class given is physicochemical. Conditions: HDO6 with ligand introduced into complementary strand.
Series [4] has as its system mouse Malat1 ncRNA. The experiment in a line: mMalat1 ncRNA expression in mouse liver and kidney after intravenous L001-HDO6 (Example 3). Conditions: c57BL/6J mice, 1 μmol/kg intravenous, Day 3; compared with vehicle and L001 complementary strand groups. The class given is in vivo. The protocol: The nucleic acid complex used in Example 3 is L001-HDO6, which is a conjugate of 16-mer HDO targeting mouse Malat1 ncRNA prepared in Example 2 and the L001 ligand. The present inventors adjusted the oligo complex to 100 μM with physiological saline (Otsuka Pharmaceutical Co., Ltd.), and double-stranded HDO was subjected to an annealing procedure comprising denaturing at 90° C. for 5 minutes and then naturally cooling to room temperature over a period of about 2 hours in a block bath (CDB-105, AS ONE Corporation).
Species differences in the PTH1 receptor, PTH, and PTHrP are insignificant between humans and mice. […]
Method Mice were divided into groups depending on body weights: the vehicle (saline, Otsuka Pharmaceutical Co., Ltd.) administration group; the L001 complementary strand (1 μmol/kg) administration group; and the L001-HDO6 (1 μmol/kg) administration group (each group consisting of 5 mice (n=5)). […] On the day of autopsy, body weight of each mouse was measured, a blood sample was taken from the heart under anesthesia with isoflurane (introduced at 3% to 5%, maintained at 1% to 3%) (Terumo syringe SS-01P2525, containing the anticoagulant heparin), and mice were euthanized by exsanguination. […]
All the measured values were indicated in terms of “mean±standard deviation.” For statistical analysis, the one-way analysis of variance (ANOVA) was performed using GraphPad Prism 7.04. […]

The target in series [5] is T1, mouse Pth1R (mPth1R), stably expressed on NIH/3T3 cells (mouse, UniProt P41593 27-591).
T1 sequence (looked up): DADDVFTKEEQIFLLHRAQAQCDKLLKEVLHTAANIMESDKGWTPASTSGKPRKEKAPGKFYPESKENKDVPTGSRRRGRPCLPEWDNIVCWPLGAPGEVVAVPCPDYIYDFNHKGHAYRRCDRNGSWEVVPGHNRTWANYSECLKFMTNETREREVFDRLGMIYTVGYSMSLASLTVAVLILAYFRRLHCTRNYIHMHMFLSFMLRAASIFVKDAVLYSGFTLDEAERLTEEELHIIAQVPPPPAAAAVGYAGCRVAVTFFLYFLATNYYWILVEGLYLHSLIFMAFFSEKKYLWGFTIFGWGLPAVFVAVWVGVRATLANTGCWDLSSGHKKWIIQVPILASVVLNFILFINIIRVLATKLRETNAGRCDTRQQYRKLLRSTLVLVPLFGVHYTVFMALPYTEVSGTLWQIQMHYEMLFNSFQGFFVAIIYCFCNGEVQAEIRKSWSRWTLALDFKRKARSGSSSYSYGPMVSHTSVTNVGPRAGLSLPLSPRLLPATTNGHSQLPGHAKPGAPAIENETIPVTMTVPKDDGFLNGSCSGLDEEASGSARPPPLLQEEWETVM
In words: cell-based or functional assay.

Where [6] appears, read: 10 minutes after single intravenous administration.

Consider “L001-HDO6: HDO targeting mouse Malat1 ncRNA: antisense strand SEQ ID NO: 179, complementary strand SEQ ID NO: 180 bound to PTH1 ligand L001 (antisense l[5mC]*lT*lA*dG*dT*dT*dC*dA*dC*dT*dG*dA*dA*lT*lG*l[5mC]; sense {L001}-mG*mC*mA*rUrUrCrArGrUrGrArArC*mU*mA*mG)”, for which the “Malat1 ncRNA expression in the kidney” value in series [1] (Day 3, compared with the saline administration group) is on record as “lowered to a statistically significant extent”; in series [1] (Day 3, in comparison with HDO without ligand), “lowered to a statistically significant extent”. Besides, the “fluorescence Alexa-488 in the glomerulus” value in series [2] (6, 24, or 72 hours after single intravenous administration) is on record as “no fluorescence was observed”; in series [2] (setting [6]), “slightly observed”. Besides, the “fluorescence Alexa-488 in kidney tubular cells” value is reported as “observed” in series [2] (setting [6]), “intensified” in series [2] (6 hours after single intravenous administration), “maximum fluorescence was observed” in series [2] (24 hours after single intravenous administration) and “still observed in many kidney tubules” in series [2] (72 hours after single intravenous administration). For the same molecule, in series [3], the midpoint of thermal melting (Tm) was determined as 64 °C. The “mMalat1 ncRNA expression level in the kidney” value in series [4] is recorded as “lowered in the L001-HDO6 administration group to a significant extent”. Also, the “mMalat1 ncRNA expression level in the liver” value in series [4] is “lowered in the L001-HDO6 administration group to a significant extent”.

With AVSEHQLLHDKGKSIQDLRRRELLEKLLAKLHKA (not fully specified (residue 33)) [L001-ASO], the “IC50 of lowering Malat1 ncRNA expression level in the mPth1R-stably expressing cell line” value in series [5] was 1.25 nM.

B1: L010-HDO6 (peptide)
peptide: DKGKSIQDLRRRELLEKLLAKLHKA
modifications: not fully specified (residue 24); printed as DKGKSIQDLRRRELLEKLLAKLH(K-PEG3-Unit)A
With B1, in series [5], the “IC50 of lowering Malat1 ncRNA expression level in the mPth1R-stably expressing cell line” value was 167 nM.

For SEHQLLHDKGKSIQDLRRRELLEKLLAKLHKA (not fully specified (residue 31)) [L003-HDO6], in series [5], the “IC50 of lowering Malat1 ncRNA expression level in the mPth1R-stably expressing cell line” value amounted to 88.9 nM.

For AVSEHQLLHDKGKSIQDLRRRELLEKLL[Aib]KLHTAK (not fully specified (residue 35); also: prints K at position 33) [L021-HDO6], the “IC50 of lowering Malat1 ncRNA expression level in the mPth1R-stably expressing cell line” value in series [5] was 46.8 nM.

B2: L005-HDO6 (peptide)
peptide: HQLLHDKGKSIQDLRRRELLEKLLAKLHKA
modifications: not fully specified (residue 29); printed as HQLLHDKGKSIQDLRRRELLEKLLAKLH(K-PEG3-Unit)A
As for B2, in series [5], the “IC50 of lowering Malat1 ncRNA expression level in the mPth1R-stably expressing cell line” value stood at 121 nM.
